Target: T1, PPC peptide, soluble recombinant 18-mer ADGACGYGRFSPPCGAAG
T1 chain: ADGACGYGRFSPPCGAAG

B1: aminophenylmercuric acetate (APMA)-activated MMP-2 (protein)
chain: YNFFPRKPKWDKNQITYRIIGYTPDLDPETVDDAFARAFQVWSDVTPLRFSRIHDGEADIMINFGRWEHGDGYPFDGKDGLLAHAFAPGTGVGGDSHFDDDELWTLGEGQVVRVKYGNADGEYCKFPFLFNGKEYNSCTDTGRSDGFLWCSTTYNFEKDGKYGFCPHEALFTMGGNAEGQPCKFPFRFQGTSYDSCTTEGRTDGYRWCGTTEDYDRDKKYGFCPETAMSTVGGNSEGAPCVFPFTFLGNKYESCTSAGRSDGKMWCATTANYDDDRKWGFCPDQGYSLFLVAAHEFGHAMGLEHSQDPGALMAPIYTYTKNFRLSQDDIKGIQELYGASPDIDLGTGPTPTLGPVTPEICKQDIVFDGIAQIRGEIFFFKDRFIWRTVTPRDKPMGPLLVATFWPELPEKIDAVYEAPQEEKAVFFAGNEYWIYSASTLERGYPKPLTSLGLPPDVQRVDAAFNWSKNKKTYIFAGDKFWRYNEVKKKMDPGFPKLIADAWNAIPDNLDAVVDLQGGGHSYFFKGAYYLKLENQSLKSVKFGSIKSDWLGC
In the case of B1, the “gelatin degradation assay (enzymatic activity, biotinylated gelatin substrate)” value is reported as “PPC inhibited both MMP-9 and MMP-2 activity”.
